Results from article PMC4783868 (Nature, 2015).

Biological target: T1, PB1 subunit of the influenza C/Johannesburg/1/1966 virus polymerase (FluPolC) (influenza C/Johannesburg/1/1966 virus, UniProt Q9IMP4)
T1 sequence: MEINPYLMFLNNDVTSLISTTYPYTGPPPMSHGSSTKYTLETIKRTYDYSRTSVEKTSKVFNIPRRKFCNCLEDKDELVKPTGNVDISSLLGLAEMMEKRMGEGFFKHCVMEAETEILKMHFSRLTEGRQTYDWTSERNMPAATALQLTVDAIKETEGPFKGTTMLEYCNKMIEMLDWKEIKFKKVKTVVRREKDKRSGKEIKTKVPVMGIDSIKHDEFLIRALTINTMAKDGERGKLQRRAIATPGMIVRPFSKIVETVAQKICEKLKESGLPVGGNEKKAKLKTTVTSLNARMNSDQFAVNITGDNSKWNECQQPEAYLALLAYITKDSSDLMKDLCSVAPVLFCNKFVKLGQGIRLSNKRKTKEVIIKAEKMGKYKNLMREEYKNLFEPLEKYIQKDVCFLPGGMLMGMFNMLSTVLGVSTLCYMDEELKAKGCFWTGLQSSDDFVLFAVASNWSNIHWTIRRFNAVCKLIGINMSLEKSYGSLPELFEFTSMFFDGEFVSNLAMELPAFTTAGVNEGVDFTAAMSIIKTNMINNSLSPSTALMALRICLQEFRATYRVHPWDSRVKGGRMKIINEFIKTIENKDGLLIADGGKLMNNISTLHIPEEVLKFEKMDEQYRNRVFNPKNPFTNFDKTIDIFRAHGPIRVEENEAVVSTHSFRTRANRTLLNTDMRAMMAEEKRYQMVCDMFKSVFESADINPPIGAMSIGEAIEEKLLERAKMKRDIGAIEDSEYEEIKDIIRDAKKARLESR
Experiment: crystal structure

B1: P3 subunit of the influenza C/Johannesburg/1/1966 virus polymerase (FluPolC) (natural protein)
chain: MSKTFAEIAEAFLEPEAVRIAKEAVEEYGDHERKIIQIGIHFQVCCMFCDEYLSTNGSDRFVLIEGRKRGTAVSLQNELCKSYDLEPLPFLCDIFDREEKQFVEIGITRKADDSYFQSKFGKLGNSCKIFVFSYDGRLDKNCEGPMEEQKLRIFSFLATAADFLRKENMFNEIFLPDNEETIIEMKKGKTFLELRDESVPLPFQTYEQMKDYCEKFKGNPRELASKVSQMQSNIKLPIKHYEQNKFRQIRLPKGPMAPYTHKFLMEEAWMFTKISDPERSRAGEILIDFFKKGNLSAIRPKDKPLQGKYPIHYKNLWNQIKAAIADRTMVINENDHSEFLGGIGRASKKIPEISLTQDVITTEGLKQSENKLPEPRSFPRWFNAEWMWAIKDSDLTGWVPMAEYPPADNELEDYAEHLNKTMEGVLQGTNCAREMGKCILTVGALMTECRLFPGKIKVVPIYARSKERKSMQEGLPVPSEMDCLFGICVKSKSHLNKDDGMYTIITFEFSIREPNLEKHQKYTVFEAGHTTVRMKKGESVIGREVPLYLYCRTTALSKIKNDWLSKARRCFITTMDTVETICLRESAKAEENLVEKTLNEKQMWIGKKNGELIAQPLREALRVQLVQQFYFCIYNDSQLEGFCNEQKKILMALEGDKKNKSSFGFNPEGLLEKIEECLINNPMCLFMAQRLNELVIEASKRGAKFFKTD
- binding result: binds
